These results are taken from US20240141043A1.

The target of assay [1] is murine CD19 (mouse) (UniProt P25918). Put plainly: flow cytometry of mouse peripheral blood, Day 1 after i.v. injection of 50 ug anti-murine CD19-FITC, CD19-FITC in master mix [CONT'D) D].
For assay [2] the target is unchanged. Put plainly: flow cytometry of mouse peripheral blood, Day 5 after i.v. injection of 50 ug anti-murine CD19-FITC, no CD19-FITC in master mix (injected antibody only) [CONT'D) D].
Assay [3] has the same target. Put plainly: flow cytometry of mouse peripheral blood, Day 8 after i.v. injection of 50 ug anti-murine CD19-FITC, CD19-FITC in master mix [CONT'D) D].
Assay [4] has the same target. Put plainly: flow cytometry of mouse peripheral blood, Day 1 after i.v. injection of 50 ug anti-murine CD19-FITC, no CD19-FITC in master mix (injected antibody only) [CONT'D) D].
For assay [5] the target is unchanged. Put plainly: flow cytometry of mouse peripheral blood, Day 5 after i.v. injection of 50 ug anti-murine CD19-FITC, CD19-FITC in master mix [CONT'D) D].
Assay [6] has the same target. Put plainly: flow cytometry of mouse peripheral blood, Day 8 after i.v. injection of 50 ug anti-murine CD19-FITC, no CD19-FITC in master mix (injected antibody only) [CONT'D) D].
The target is the same in assay [7]. Put plainly: flow cytometry of mouse peripheral blood, 4hrs after i.v. injection of 50 ug anti-murine CD19-FITC, CD19-FITC in master mix [CONT'D) D].
For assay [8] the target is unchanged. The experiment in a line: flow cytometry of mouse peripheral blood, 4hrs after i.v. injection of 50 ug anti-murine CD19-FITC, no CD19-FITC in master mix (injected antibody only) [CONT'D) D].

Sequence of murine CD19 (mouse) (P25918 19-547): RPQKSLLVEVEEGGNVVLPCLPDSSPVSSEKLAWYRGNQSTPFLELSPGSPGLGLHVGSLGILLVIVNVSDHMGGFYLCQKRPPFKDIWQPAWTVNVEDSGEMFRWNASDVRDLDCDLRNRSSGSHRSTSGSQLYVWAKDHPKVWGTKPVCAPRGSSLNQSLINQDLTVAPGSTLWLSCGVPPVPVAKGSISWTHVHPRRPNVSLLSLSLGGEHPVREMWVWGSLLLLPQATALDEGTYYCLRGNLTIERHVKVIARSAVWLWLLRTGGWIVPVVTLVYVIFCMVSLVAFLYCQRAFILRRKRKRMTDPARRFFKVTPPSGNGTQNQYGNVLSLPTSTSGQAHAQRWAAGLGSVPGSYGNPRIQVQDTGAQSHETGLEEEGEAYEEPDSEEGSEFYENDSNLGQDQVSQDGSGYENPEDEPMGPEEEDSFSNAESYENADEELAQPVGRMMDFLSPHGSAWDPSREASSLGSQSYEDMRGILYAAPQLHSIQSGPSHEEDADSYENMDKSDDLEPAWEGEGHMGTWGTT

Consider “anti-murine CD19-FITC antibody (Biolegend; clone 1D3)”, for which the CD19+CD20+ gate (share of cells in the gate) with murine CD19 (mouse) [1] was 52.3; with murine CD19 (mouse) [2] it was 44; in the assay with murine CD19 (mouse) [3], 36.4; with murine CD19 (mouse) [4], 49.1; with murine CD19 (mouse) [5], 43.6; in the assay with murine CD19 (mouse) [6], 38.3. Also, the CD19+CD20+ gate (share of cells in the gate) with murine CD19 (mouse) [7] was found to be 53; in the assay with murine CD19 (mouse) [8] it was 52.7.
